Here are results for 16 molecules from patent publication US20180250395A1 (Janssen / Centocor, published 2018).

One may read the Kd as the equilibrium constant for the complex coming apart.

Experiment [1] deals with T1, recombinant human CD47 extracellular domain (ECD), His-tagged, dimer (human, UniProt Q08722 19-141).
T1 construct: Dimeric fraction of the same His-tagged ECD; also called His-tagged CD47-ECD dimer protein
Kind of experiment: MSD; CD47-ECD dimer binding to captured SIRP alpha-Fc, mAb 10 µg/ml.

For experiment [2], the target named is T2, Cyno CD47 ECD protein, His-tagged, monomer (cyno).
T2 construct: extracellular domain; also called cynomolgus CD47
Kind of experiment: ProteOn SPR; cyno KD / human KD.

Experiment [3] concerns the target T2, Cyno CD47 ECD protein, His-tagged, …. Kind of experiment: ProteOn SPR; mAb captured, ECD monomer as analyte.
Experiment [4] addresses T3, recombinant human CD47 extracellular domain (ECD), His-tagged, monomer (human, UniProt Q08722 19-141).
T3 construct: C-terminal 6xHis tag; monomeric fraction from Superdex 200; also called human CD47 ECD; CD47-ECD monomer
Kind of experiment: ProteOn SPR; mAb captured, ECD monomer as analyte.

B1: C47B213 (antibody, V domains shown)
VH: EVQLVQSGAEVKKPGESLKISCKGSGYSFDDSWIGWVRQMPGKGLEWMGIIYPGDSDTRYSPSFQGQVTISADKSISTAYLQWSSLKASDTAVYYCARVGRFASHQLDYWGQGTLVTVSS
VL: EIVLTQSPATLSLSPGERATLSCRASQSVNKALAWYQQKPGQAPRLLIYGASNRATGIPARFSGSGSGTDFTLTISSLEPEDFAVYYCQQGKGWPFTFGQGTKVEIK
notes: human IgG2sigma/kappa
With B1, the “% SIRP alpha Inhibition” value in experiment [1] was 71.6%. For the same molecule, in experiment [2], the “KD Ratio Cyno/Human” value came out at 1.8. For the same molecule, the Kd is 4.25 nM in experiment [3] and 2.33 nM in experiment [4].

B2: C47B214 (antibody, V domains shown)
VH: EVQLVQSGAEVKKPGESLKISCKGSGYSFDDSWIGWVRQMPGKGLEWMGIIYPGDSDTRYSPSFQGQVTISADKSISTAYLQWSSLKASDTAVYYCARVGRFASHQLDYWGQGTLVTVSS
VL: EIVLTQSPATLSLSPGERATLSCRASQSVNNRLAWYQQKPGQAPRLLIHWASTRAIGIPARFSGSGSGTDFTLTISSLEPEDFAVYYCQQGASWPFTFGQGTKVEIK
notes: human IgG2sigma/kappa
Consider B2, for which the “% SIRP alpha Inhibition” value in experiment [1] is 99.7%. Also, in experiment [2], the “KD Ratio Cyno/Human” value worked out at 0.6. Moreover, the Kd in experiment [3] was 1.4 nM; in experiment [4], 2.3 nM.

B3: C47B215 (antibody, V domains shown)
VH: EVQLVQSGAEVKKPGESLKISCKGSGYSFDDSWIGWVRQMPGKGLEWMGIIYPGDSDTRYSPSFQGQVTISADKSISTAYLQWSSLKASDTAVYYCARVGRFASHQLDYWGQGTLVTVSS
VL: EIVLTQSPATLSLSPGERATLSCRASQSVGSRLAWYQQKPGQAPRLLIYWASTRATGIPARFSGSGSGTDFTLTISSLEPEDFAVYYCQQGAYWPFTFGQGTKVEIK
notes: human IgG2sigma/kappa
In the case of B3, the “% SIRP alpha Inhibition” value in experiment [1] was 99.6%. In addition, the “KD Ratio Cyno/Human” value in experiment [2] came out at 0.7. The results for the Kd in experiment [3] and in experiment [4] were 1.44 nM and 2.05 nM, respectively.

B4: C47B220 (antibody, V domains shown)
VH: EVQLVQSGAEVKKPGESLKISCKGSGYSFTDSWIGWVRQMPGKGLEWMGIIYPGDSDTRYSPSFQGQVTISADKSISTAYLQWSSLKASDTAVYYCARVGRFASHQLDYWGQGTLVTVSS
VL: EIVLTQSPATLSLSPGERATLSCRASQSVSNRQAWYQQKPGQAPRLLIHSASNRATGIPARFSGSGSGTDFTLTISSLEPEDFAVYYCQQGRSWPFTFGQGTKVEIK
notes: human IgG2sigma/kappa
Take B4: the “% SIRP alpha Inhibition” value in experiment [1] turned out to be 98.6%. Moreover, the “KD Ratio Cyno/Human” value in experiment [2] was 0.9. Also, the Kd in experiment [3] turned out to be 3.74 nM; in experiment [4], 4.3 nM.

B5: C47B221 (antibody, V domains shown)
VH: EVQLVQSGAEVKKPGESLKISCKGSGYSFTDYWIGWVRQMPGKGLEWMGIIYPGDSDTRYSPSFQGQVTISADKSISTAYLQWSSLKASDTAVYYCARVGRFASHQLDYWGQGTLVTVSS
VL: EIVLTQSPATLSLSPGERATLSCRASQSVNKALAWYQQKPGQAPRLLIYGASNRATGIPARFSGSGSGTDFTLTISSLEPEDFAVYYCQQGKGWPFTFGQGTKVEIK
notes: human IgG2sigma/kappa
For the molecule B5, the “% SIRP alpha Inhibition” value in experiment [1] is 95%. The “KD Ratio Cyno/Human” value in experiment [2] turned out to be 0.9. Besides, the values for the Kd in experiment [3] and in experiment [4] were 4.5 nM and 5.21 nM, respectively.

B6: C47B216 (antibody, V domains shown)
VH: EVQLVQSGAEVKKPGESLKISCKGSGYSFDDSWIGWVRQMPGKGLEWMGIIYPGDSDTRYSPSFQGQVTISADKSISTAYLQWSSLKASDTAVYYCARVGRFASHQLDYWGQGTLVTVSS
VL: EIVLTQSPATLSLSPGERATLSCRASQSVSNRQAWYQQKPGQAPRLLIHSASNRATGIPARFSGSGSGTDFTLTISSLEPEDFAVYYCQQGRSWPFTFGQGTKVEIK
notes: human IgG2sigma/kappa
As for B6, the “% SIRP alpha Inhibition” value in experiment [1] amounted to 99.8%. Also, the “KD Ratio Cyno/Human” value in experiment [2] was determined as 0.8. The Kd came out at 2.74 nM in experiment [3] and 3.35 nM in experiment [4].

B7: C47B225 (antibody, V domains shown)
VH: EVQLVQSGAEVKKPGESLKISCKGSGYSFDDYWIGWVRQMPGKGLEWMGIIYPGDSDTRYSPSFQGQVTISADKSISTAYLQWSSLKASDTAVYYCARVGRFASHQLDYWGQGTLVTVSS
VL: EIVLTQSPATLSLSPGERATLSCRASQSVNKALAWYQQKPGQAPRLLIYGASNRATGIPARFSGSGSGTDFTLTISSLEPEDFAVYYCQQGKGWPFTFGQGTKVEIK
notes: human IgG2sigma/kappa
For B7, the “% SIRP alpha Inhibition” value in experiment [1] was found to be 96.3%. The “KD Ratio Cyno/Human” value in experiment [2] stood at 1.1. The Kd in experiment [3] amounted to 3.76 nM; in experiment [4], 3.31 nM.

B8: C47B222 (human IgG2sigma) (antibody, V domains shown)
VH: EVQLVQSGAEVKKPGESLKISCKGSGYSFTDYWIGWVRQMPGKGLEWMGIIYPGDSDTRYSPSFQGQVTISADKSISTAYLQWSSLKASDTAVYYCARVGRFASHQLDYWGQGTLVTVSS
VL: EIVLTQSPATLSLSPGERATLSCRASQSVNNRLAWYQQKPGQAPRLLIHWASTRAIGIPARFSGSGSGTDFTLTISSLEPEDFAVYYCQQGASWPFTFGQGTKVEIK
notes: human IgG2sigma/kappa; also called IgG2 Fc-silent C47B222
B8: the “% SIRP alpha Inhibition” value in experiment [1] came to 99.9%. The “KD Ratio Cyno/Human” value in experiment [2] is 0.8. The Kd in experiment [3] came to 0.842 nM; in experiment [4] it was 1.12 nM.

B9: C47B217 (antibody, V domains shown)
VH: EVQLVQSGAEVKKPGESLKISCKGSGYSFTDSWIGWVRQMPGKGLEWMGIIYPGDSDTRYSPSFQGQVTISADKSISTAYLQWSSLKASDTAVYYCARVGRFASHQLDYWGQGTLVTVSS
VL: EIVLTQSPATLSLSPGERATLSCRASQSVNKALAWYQQKPGQAPRLLIYGASNRATGIPARFSGSGSGTDFTLTISSLEPEDFAVYYCQQGKGWPFTFGQGTKVEIK
notes: human IgG2sigma/kappa
As for B9, the “% SIRP alpha Inhibition” value in experiment [1] was 83.1%. For the same molecule, the “KD Ratio Cyno/Human” value in experiment [2] turned out to be 0.7. Moreover, the Kd amounted to 5.56 nM in experiment [3] and 7.67 nM in experiment [4].

B10: C47B218 (antibody, V domains shown)
VH: EVQLVQSGAEVKKPGESLKISCKGSGYSFTDSWIGWVRQMPGKGLEWMGIIYPGDSDTRYSPSFQGQVTISADKSISTAYLQWSSLKASDTAVYYCARVGRFASHQLDYWGQGTLVTVSS
VL: EIVLTQSPATLSLSPGERATLSCRASQSVNNRLAWYQQKPGQAPRLLIHWASTRAIGIPARFSGSGSGTDFTLTISSLEPEDFAVYYCQQGASWPFTFGQGTKVEIK
notes: human IgG2sigma/kappa
As to B10, in experiment [1], the “% SIRP alpha Inhibition” value is 98.9%. The “KD Ratio Cyno/Human” value in experiment [2] is 0.6. In addition, the figures for the Kd in experiment [3] and in experiment [4] were 1.58 nM and 2.56 nM, respectively.

B11: C47B223 (antibody, V domains shown)
VH: EVQLVQSGAEVKKPGESLKISCKGSGYSFTDYWIGWVRQMPGKGLEWMGIIYPGDSDTRYSPSFQGQVTISADKSISTAYLQWSSLKASDTAVYYCARVGRFASHQLDYWGQGTLVTVSS
VL: EIVLTQSPATLSLSPGERATLSCRASQSVGSRLAWYQQKPGQAPRLLIYWASTRATGIPARFSGSGSGTDFTLTISSLEPEDFAVYYCQQGAYWPFTFGQGTKVEIK
notes: human IgG2sigma/kappa
For B11, in experiment [1], the “% SIRP alpha Inhibition” value was 100%. Besides, the “KD Ratio Cyno/Human” value in experiment [2] came to 0.7. Besides, the results for the Kd in experiment [3] and in experiment [4] were 0.807 nM and 1.14 nM, respectively.

B12: C47B228 (antibody, V domains shown)
VH: EVQLVQSGAEVKKPGESLKISCKGSGYSFDDYWIGWVRQMPGKGLEWMGIIYPGDSDTRYSPSFQGQVTISADKSISTAYLQWSSLKASDTAVYYCARVGRFASHQLDYWGQGTLVTVSS
VL: EIVLTQSPATLSLSPGERATLSCRASQSVSNRQAWYQQKPGQAPRLLIHSASNRATGIPARFSGSGSGTDFTLTISSLEPEDFAVYYCQQGRSWPFTFGQGTKVEIK
notes: human IgG2sigma/kappa
On to B12, for which, in experiment [1], the “% SIRP alpha Inhibition” value came to 99.3%. In addition, the “KD Ratio Cyno/Human” value in experiment [2] turned out to be 0.9. For the same molecule, the results for the Kd in experiment [3] and in experiment [4] were 2.53 nM and 2.69 nM, respectively.

B13: C47B226 (antibody, V domains shown)
VH: EVQLVQSGAEVKKPGESLKISCKGSGYSFDDYWIGWVRQMPGKGLEWMGIIYPGDSDTRYSPSFQGQVTISADKSISTAYLQWSSLKASDTAVYYCARVGRFASHQLDYWGQGTLVTVSS
VL: EIVLTQSPATLSLSPGERATLSCRASQSVNNRLAWYQQKPGQAPRLLIHWASTRAIGIPARFSGSGSGTDFTLTISSLEPEDFAVYYCQQGASWPFTFGQGTKVEIK
notes: human IgG2sigma/kappa; also called C27B226
Consider B13, for which, in experiment [1], the “% SIRP alpha Inhibition” value was determined as 100%. Moreover, in experiment [2], the “KD Ratio Cyno/Human” value worked out at 0.6. Further, the Kd in experiment [3] is 0.543 nM; in experiment [4] it was 0.872 nM.

B14: C47B224 (antibody, V domains shown)
VH: EVQLVQSGAEVKKPGESLKISCKGSGYSFTDYWIGWVRQMPGKGLEWMGIIYPGDSDTRYSPSFQGQVTISADKSISTAYLQWSSLKASDTAVYYCARVGRFASHQLDYWGQGTLVTVSS
VL: EIVLTQSPATLSLSPGERATLSCRASQSVSNRQAWYQQKPGQAPRLLIHSASNRATGIPARFSGSGSGTDFTLTISSLEPEDFAVYYCQQGRSWPFTFGQGTKVEIK
notes: human IgG2sigma/kappa
With B14, the “% SIRP alpha Inhibition” value in experiment [1] is 99.7%. In experiment [2], the “KD Ratio Cyno/Human” value came out at 0.9. The figures for the Kd in experiment [3] and in experiment [4] were 2.19 nM and 2.46 nM, respectively.

B15: C47B227 (antibody, V domains shown)
VH: EVQLVQSGAEVKKPGESLKISCKGSGYSFDDYWIGWVRQMPGKGLEWMGIIYPGDSDTRYSPSFQGQVTISADKSISTAYLQWSSLKASDTAVYYCARVGRFASHQLDYWGQGTLVTVSS
VL: EIVLTQSPATLSLSPGERATLSCRASQSVGSRLAWYQQKPGQAPRLLIYWASTRATGIPARFSGSGSGTDFTLTISSLEPEDFAVYYCQQGAYWPFTFGQGTKVEIK
notes: human IgG2sigma/kappa
With B15, the “% SIRP alpha Inhibition” value in experiment [1] was 100%. For the same molecule, the “KD Ratio Cyno/Human” value in experiment [2] was determined as 0.6. Also, the figures for the Kd in experiment [3] and in experiment [4] were 0.574 nM and 0.902 nM, respectively.

B16: C47B219 (antibody, V domains shown)
VH: EVQLVQSGAEVKKPGESLKISCKGSGYSFTDSWIGWVRQMPGKGLEWMGIIYPGDSDTRYSPSFQGQVTISADKSISTAYLQWSSLKASDTAVYYCARVGRFASHQLDYWGQGTLVTVSS
VL: EIVLTQSPATLSLSPGERATLSCRASQSVGSRLAWYQQKPGQAPRLLIYWASTRATGIPARFSGSGSGTDFTLTISSLEPEDFAVYYCQQGAYWPFTFGQGTKVEIK
notes: human IgG2sigma/kappa
For B16, the “% SIRP alpha Inhibition” value in experiment [1] amounted to 99.4%. For the same molecule, the “KD Ratio Cyno/Human” value in experiment [2] was 0.6. Also, the Kd came to 1.66 nM in experiment [3] and 2.58 nM in experiment [4].
